According to patent US6919204B2, “Modulation of gene expression using localization domains” (Sangamo Biosciences, Inc., priority 2000, dated 2005):

B1: dMBD-like: Drosophila methyl CpG binding domain protein homolog, product of the 1115 base mRNA (SEQ ID NO:14) (protein)
chain: MQMNPSVTIERKRVDCSVLPKGWQRDEVRKSGSSANNNASSNNNSSATASSNNNNNKVDVFYYSPTGKRAEGKPQDIAIPDFQPGKMPHCALPSPSISLYRCSAMPLPIASGGGNGATSGSAANALKRKFARSQGGNAAGAAGAAPPAATASSAATATAASASPSTANRQQQQIELSRALRTDVSLVPPIRQTASIFKQPVTVIRNHKQDPAKAKNEPKHGTREKPKQLFWEKRLERLRACHDSGEELDDISLPKTIRTVGPNVNEQTVLQSVATALHMLNAGVHGQSSTKADLTKNAMAFMNPEQPLMHAVIISEDDIRKQEDRVGVARRKLQDALKT
B2: dMBD-likeΔ: shorter Drosophila MBD-like isoform, product of the 842 base mRNA (SEQ ID NO:15) (protein)
chain: MQMNPSVTIERKRVDCSVLPKGWQRDEVRKSGSSANNNASSNNNSSATASSNNNNNKVDVFYYSRALRTDVSLVPPIRQTASIFKQPVTVIRNHKQDPAKAKNEPKHGTREKPKQLFWEKRLERLRACHDSGEELDDISLPKTIRTVGPNVNEQTVLQSVATALHMLNAGVHGQSSTKADLTKNAMAFMNPEQPLMHAVIISEDDIRKQEDRVGVARRKLQDALKT

What was measured:
[1] = system: G5DE5tkLuc reporter in S2 cells; assay: Effect of Trichostatin-A on Gal4-tethered repression; format: cell-based, Drosophila; conditions: TSA 100 nM and 400 nM, 24 h before harvest
Method: (§1) Drosophila S2 cells were grown in Schneider's medium (Sigma) at 27° C. containing 10% FBS and penicillin/streptomycin. Cells were transfected using the Superfect reagent (Qiagen) following the manufacturer's directions. Transfection assays included 1.5 μg of either the pG5DE5tkLuc reporter or the p-37tkRLuc internal control, essentially as described in Chen et al. (1998) Mol Cell Biol 18:7259-7268. The Gal4 DNA binding domain constructs, pACTIN-SV-Gal4-Gro, pACTIN-SV-Gal4-MBD and pACTIN-SV-Gal4-MBDΔ were constructed by insertion of the Gal4 DBD into the HindIII/PstI sites of pACTIN-SV followed by insertion of Gro, dMBD-like and dMBD-likeΔ into the EcoRI site of the resulting plasmid. Quantities of individual Gal4 plasmids were varied as described in the figure legends. The total amount of plasmid was normalized to 4 μg by addition of pACTIN-SV vector (Huynh et al. (1999) J. Mol Biol 288:13-20) as carrier. Cells were harvested 12 h after transfection and luciferase assays were performed using an Enhanced Luciferase Assay Kit (Pharmingen) according to the manufacturer's instructions. Where indicated, transfected cells were treated with Trichostatin A (TSA, Wako) for 24 h before harvest. If dMBD-like represses transcription through recruitment of a Drosophila Mi-2 complex, transcriptional repression should be sensitive to inhibitors of histone deacetylases. Accordingly, the effect of Trichostatin-A, a histone deacetylase inhibitor, on dMBD-like-mediated repression was tested.

[2] = system: methylated (GAM12) and unmethylated (GAC12) DNA probes; assay: Gel mobility-shift assay (solution binding); conditions: GAC12 or GAM12 probe; 50, 75, 150 ng protein
Method: (§2) Gel mobility shifts were performed in 10% polyacrylamide gels run in 0.5×TBE buffer (45 mM Tris, pH 8.0, 45 mM boric acid, 1 mM EDTA) using GAC12 or GAM12 double-stranded oligonucleotide probes, essentially as described in Wade et al. (1999) Nature Genet. 23:62-66. One picomole of radiolabelled probe was mixed with purified recombinant protein as indicated in the figure legends in 10 mM Tris HCl pH 8.0, 3 mM MgCl2, 50 mM NaCl, 0.1 mM EDTA, 0.1% NP-40, 2 mM DTT, 5% glycerol and 0.4 mg/ml BSA. The samples were incubated for 30 min at 37° C. 30 pmoles of competitor DNA (GAC12 or GAM12) were used per binding reaction. Gels were scanned on a Phosphormager (Molecular Dynamics). The procedure used for southwestern assays is as described in Wade et al. (1999), supra.
Solution interactions with DNA were also examined using an electrophoretic mobility shift assay (FIG. 1D). […] No interaction was detected under these conditions, even non-specific aggregation.

[3] = system: methylated (GAM12) and unmethylated (GAC12) DNA probes; assay: Southwestern assay with immobilized recombinant protein; format: binding
Method: as §2
In Southwestern assays using immobilized protein, neither isoform interacted with the probes, regardless of methylation status (FIG. 1C). Thus, either the proteins fail to bind or they are unable to refold on the membrane surface.

[4] = system: G5DE5tkLuc reporter in S2 cells; assay: Cotransfection transcription assay, Gal4-tethered repression of luciferase reporter; format: cell-based, Drosophila; conditions: transfection into S2 cells; protein not tethered
Method: as §1, with “If dMBD-like represses transcription through recruitment of a Drosophila Mi-2 complex, transcriptional repression should be sensitive to inhibitors of histone deacetylases. Accordingly, the effect of Trichostatin-A, a histone deacetylase inhibitor, on dMBD-like-mediated repression was tested.” left out

Row | Molecule | relief of repression by Gal4-Gro [1] | relief of repression mediated by tethered dMBD-like [1] | relief of repression mediated by tethered dMBD-likeΔ [1] | binding to DNA in solution (electrophoretic mobility shift) [2] | binding of immobilized protein to DNA probes (Southwestern) [3] | transcriptional repression lacking the Gal4 DBD [4]
1 | CC(/C=C/C(=O)NO)=C\[C@@H](C)C(=O)c1ccc(N(C)C)cc1 [Trichostatin-A] | relieves repression | largely relieved | largely relieved |  |  | 
2 | B1 |  |  |  | fails to bind methylated DNA in solution | fails to bind methylated DNA | failed to repress transcription
3 | B2 |  |  |  |  |  | failed to repress transcription
